Results published in publication PMC3289678.

B1: secretory human prostatic acid phosphatase (hPAP, S-PAP): N62Q (protein)
parent chain: MRAAPLLLARAASLSLGFLFLLFFWLDRSVLAKELKFVTLVFRHGDRSPIDTFPTDPIKESSWPQGFGQLTQLGMEQHYELGEYIRKRYRKFLNESYKHEQVYIRSTDVDRTLMSAMTNLAALFPPEGVSIWNPILLWQPIPVHTVPLSEDQLLYLPFRNCPRFQELESETLKSEEFQKRLHPYKDFIATLGKLSGLHGQDLFGIWSKVYDPLYCESVHNFTLPSWATEDTMTKLRELSELSLLSLYGIHKQKEKSRLQGGVLVNEILNHMKRATQIPSYKKLIMYSAHDTTVSGLQMALDVYNGLLPPYASCHLTELYFEKGEYFVEMYYRNETQHEPYPLMLPGCSPSCPLERFAELVGPVIPQDWSTECMTTNSHQGTEDSTD
B2: secretory human prostatic acid phosphatase (hPAP, S-PAP): N62Q, N188Q, N301Q (protein)
parent chain: B1 parent chain
B3: secretory human prostatic acid phosphatase (hPAP, S-PAP): N188Q, N301Q (protein)
parent chain: B1 parent chain
B4: secretory human prostatic acid phosphatase (hPAP, S-PAP): N62Q, N301Q (protein)
parent chain: B1 parent chain
B5: secretory human prostatic acid phosphatase (hPAP, S-PAP): N301Q (protein)
parent chain: B1 parent chain
B6: secretory human prostatic acid phosphatase (hPAP, S-PAP): N62Q, N188Q (protein)
parent chain: B1 parent chain
B7: secretory human prostatic acid phosphatase (hPAP, S-PAP): PNGase F (protein)
parent chain: B1 parent chain
B8: secretory human prostatic acid phosphatase (hPAP, S-PAP): N188Q (protein)
parent chain: B1 parent chain

How the values were obtained:
[1] = DiFMUP phosphatase assay, crude cell lysates; conditions: glycan lost; control: wild-type r-hPAP
[2] = DiFMUP phosphatase assay, crude secreted fractions; conditions: glycan lost; control: wild-type r-hPAP
[3] = anti-hPAP western blot, lysates and secreted fractions; conditions: glycan lost; control: wild-type r-hPAP
[4] = DiFMUP assay with 70 mM L-(+)-tartrate; conditions: glycan lost; control: wild-type r-hPAP
[5] = DiFMUP phosphatase assay after 24 h PNGase F; conditions: glycan lost; control: untreated r-hPAP

| Protein | expression_or_secretion [3] | other: inhibition by L-(+)-tartrate [4] | also measured |
| --- | --- | --- | --- |
| B1 | no change | no change | enzymatic_activity, other: RFU/µg total protein at 10 min [1]: decreases, 7.8 (0.29) vs 12.2 (0.28); enzymatic_activity, other: RFU/µg total protein at 10 min [2]: decreases, 67.0 (2.78) vs 109.5 (1.44) |
| B2 | abolishes |  |  |
| B3 | abolishes |  |  |
| B4 | abolishes |  |  |
| B5 | abolishes |  |  |
| B6 | decreases | no change |  |
| B7 |  |  | enzymatic_activity [5]: no change |
| B8 | decreases | no change |  |
